± gives the uncertainty stated by the source.
B1: Far upstream element-binding protein 2, residues 142 to 214; numbered along this chain, Q92945 (parent)
chain: RTSMTEEYRVPDGMVGLIIGRGGEQINKIQQDSGCKVQISPDSGGLPERSVSLTGAPESVQKAKMMLDDIVSR

Variants of: B1
Assay: abundance fitness (aPCA) (normalised: wild type 0, dead -1); higher = more abundant; growth selection in yeast, the domain comes from the species named
Conditions: Homo sapiens

Row | Variant | abundance fitness
1 | P57A | -0.101 ± 0.049
2 | P57E | -0.259 ± 0.059
3 | P57T | -0.325 ± 0.061
4 | V37N | -1.21 ± 0.17
5 | V37M | -0.14 ± 0.065
6 | C35V | -0.209 ± 0.043
7 | C35Q | -0.791 ± 0.087
8 | C35R | -0.848 ± 0.045
9 | C35H | -0.917 ± 0.13
10 | D42M | -0.15 ± 0.057
11 | D42R | -0.11 ± 0.039
12 | E7H | 0.043 ± 0.069
13 | E7M | -0.02 ± 0.049
14 | P41W | -0.299 ± 0.06
15 | P41L | -0.172 ± 0.048
16 | P41F | -0.122 ± 0.095
17 | G20S | -0.298 ± 0.043
18 | G20F | -1.01 ± 0.14
19 | G20I | -1.09 ± 0.18
20 | G20H | -0.576 ± 0.099
21 | G44V | -0.133 ± 0.045

Row | Variant | abundance fitness
22 | G44I | -0.339 ± 0.13
23 | G44T | -0.017 ± 0.051
24 | G45Y | -0.299 ± 0.1
25 | G45L | -0.193 ± 0.05
26 | M65W | -0.211 ± 0.05
27 | Q25C | -0.099 ± 0.12
28 | L67N | -0.601 ± 0.065
29 | L67R | -0.778 ± 0.042
30 | R49V | -0.139 ± 0.047
31 | M4E | -0.085 ± 0.047
32 | M4V | -0.069 ± 0.044
33 | M4C | 0.045 ± 0.062
34 | M4P | -0.365 ± 0.051
35 | I39W | -0.304 ± 0.055
36 | T5F | -0.331 ± 0.084
37 | T5L | -0.384 ± 0.04
38 | D12Y | -0.204 ± 0.071
39 | E58K | -0.065 ± 0.068
40 | E58C | -0.305 ± 0.08
41 | E58N | -0.275 ± 0.11
42 | I29N | -0.869 ± 0.14

Row | Variant | abundance fitness
43 | I29G | -0.856 ± 0.044
44 | I29E | -0.736 ± 0.064
45 | V60D | -0.789 ± 0.089
46 | V60A | -0.689 ± 0.05
47 | G34W | -1.02 ± 0.087
48 | G34S | -0.357 ± 0.061
49 | G34F | -0.887 ± 0.2
50 | R21P | 0.008 ± 0.042
51 | K28H | -0.162 ± 0.077
52 | K28V | -0.419 ± 0.046
53 | E48R | -0.12 ± 0.039
54 | E48G | -0.044 ± 0.039
55 | V10Q | -0.709 ± 0.062
56 | V10A | -0.289 ± 0.044
57 | K62A | -0.173 ± 0.044
58 | S59Y | -0.727 ± 0.092
59 | S59G | -0.149 ± 0.039
60 | S59I | -0.848 ± 0.12
61 | Y8R | -0.455 ± 0.037
62 | Y8E | -0.496 ± 0.045
63 | Y8I | -0.061 ± 0.062

Row | Variant | abundance fitness
64 | Y8S | -0.472 ± 0.046
65 | Y8Q | -0.51 ± 0.058
66 | S40P | -0.011 ± 0.053
67 | S40L | 0.01 ± 0.049
68 | M66W | -0.473 ± 0.054
69 | M66R | -0.512 ± 0.042
70 | M66H | -0.523 ± 0.08
71 | M66I | -0.254 ± 0.076
72 | D68C | -0.372 ± 0.062
73 | D68V | -0.456 ± 0.046
74 | G55R | -0.965 ± 0.054
75 | G55I | -1.5 ± 0.28
76 | G55M | -1.18 ± 0.16
77 | G55F | -1.41 ± 0.28
78 | G55L | -1.18 ± 0.084
79 | Q38T | 0.033 ± 0.053
80 | Q38R | -0.028 ± 0.039
81 | Q38M | 0.007 ± 0.069
82 | A56R | 0.012 ± 0.041
83 | A56N | -0.272 ± 0.11

From the Human Domainome abundance scans (Beltran et al. 2025)
